Experimental data taken from patent US20190270826A1 (Janssen / Centocor, published 2019).

T1: rat IL1RAP ECD displayed on HEK-293F cells (pDisplay) (rat, UniProt Q63621 21-367)
T1 sequence: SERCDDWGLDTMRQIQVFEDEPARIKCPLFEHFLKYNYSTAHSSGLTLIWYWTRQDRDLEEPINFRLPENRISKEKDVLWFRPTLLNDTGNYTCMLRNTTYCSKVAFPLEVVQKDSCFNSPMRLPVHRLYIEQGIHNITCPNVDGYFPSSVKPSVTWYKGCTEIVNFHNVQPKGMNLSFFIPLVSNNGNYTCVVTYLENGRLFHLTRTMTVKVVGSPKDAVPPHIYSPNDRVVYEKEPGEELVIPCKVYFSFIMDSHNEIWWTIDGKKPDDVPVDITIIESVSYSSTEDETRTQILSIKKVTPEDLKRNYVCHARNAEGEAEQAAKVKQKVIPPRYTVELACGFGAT

T2: mouse IL1RAP ECD displayed on HEK-293F cells (pDisplay) (mouse, UniProt Q61730 21-367)
T2 sequence: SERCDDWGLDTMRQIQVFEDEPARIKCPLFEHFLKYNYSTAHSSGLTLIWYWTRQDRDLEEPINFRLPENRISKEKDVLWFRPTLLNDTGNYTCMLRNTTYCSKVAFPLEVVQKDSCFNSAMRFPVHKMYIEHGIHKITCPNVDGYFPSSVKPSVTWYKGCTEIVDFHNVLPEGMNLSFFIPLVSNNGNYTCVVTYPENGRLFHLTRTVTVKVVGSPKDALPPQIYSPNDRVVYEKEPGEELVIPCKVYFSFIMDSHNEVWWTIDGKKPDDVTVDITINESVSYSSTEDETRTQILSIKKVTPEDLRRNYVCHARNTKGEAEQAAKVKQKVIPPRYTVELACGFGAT

T3: cyno IL1RAP ECD displayed on HEK-293F cells (pDisplay) (cynomolgus monkey, UniProt P59822 21-367 (rhesus entry))
T3 sequence: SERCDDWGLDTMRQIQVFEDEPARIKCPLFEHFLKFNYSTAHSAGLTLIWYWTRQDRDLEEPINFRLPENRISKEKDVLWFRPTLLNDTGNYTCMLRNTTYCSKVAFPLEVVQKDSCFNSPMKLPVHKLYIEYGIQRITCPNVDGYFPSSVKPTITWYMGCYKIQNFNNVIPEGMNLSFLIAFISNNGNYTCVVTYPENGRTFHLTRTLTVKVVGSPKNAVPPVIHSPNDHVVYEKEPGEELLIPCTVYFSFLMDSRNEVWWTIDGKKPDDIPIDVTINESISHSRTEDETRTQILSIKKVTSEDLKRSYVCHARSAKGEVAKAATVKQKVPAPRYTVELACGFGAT

T4: recombinant human IL1RAP ECD (human, UniProt Q9NPH3 21-367)
T4 construct: His-tagged; also called hIL1RAP-ECD; rhuIL1RAP
T4 sequence: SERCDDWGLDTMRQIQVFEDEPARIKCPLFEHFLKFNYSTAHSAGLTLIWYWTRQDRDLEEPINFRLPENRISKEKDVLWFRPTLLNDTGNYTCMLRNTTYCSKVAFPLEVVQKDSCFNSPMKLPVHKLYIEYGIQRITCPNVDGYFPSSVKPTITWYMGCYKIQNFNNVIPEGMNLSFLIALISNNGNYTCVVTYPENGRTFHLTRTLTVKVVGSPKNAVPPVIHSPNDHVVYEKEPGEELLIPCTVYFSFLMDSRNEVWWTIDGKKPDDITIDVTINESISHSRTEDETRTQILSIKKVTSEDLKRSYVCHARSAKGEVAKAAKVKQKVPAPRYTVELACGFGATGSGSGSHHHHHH

T5: recombinant cyno IL1RAP ECD (cynomolgus monkey, UniProt P59822 21-367 (rhesus entry))
T5 construct: also called rcynoIL1RAP
T5 sequence: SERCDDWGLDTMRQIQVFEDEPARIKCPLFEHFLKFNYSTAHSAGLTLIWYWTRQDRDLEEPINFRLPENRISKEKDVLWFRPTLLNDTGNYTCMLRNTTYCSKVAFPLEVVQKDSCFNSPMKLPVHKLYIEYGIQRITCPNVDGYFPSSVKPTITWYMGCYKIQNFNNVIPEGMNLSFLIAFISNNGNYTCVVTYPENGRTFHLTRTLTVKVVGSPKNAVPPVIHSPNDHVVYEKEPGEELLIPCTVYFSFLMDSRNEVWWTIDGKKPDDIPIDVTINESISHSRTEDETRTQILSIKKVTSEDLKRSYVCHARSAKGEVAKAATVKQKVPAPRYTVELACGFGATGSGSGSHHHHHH

T6: human FcγRIIb (human, UniProt P31994 43-217, limits assumed)
T6 construct: GST-tagged
T6 sequence (looked up): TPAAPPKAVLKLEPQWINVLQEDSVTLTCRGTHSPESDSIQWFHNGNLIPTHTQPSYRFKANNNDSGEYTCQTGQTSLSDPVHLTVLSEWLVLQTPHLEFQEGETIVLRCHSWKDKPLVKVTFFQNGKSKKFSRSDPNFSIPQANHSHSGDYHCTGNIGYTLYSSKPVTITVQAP

B1: IAPB17 (antibody, human IgG4 S228P, kappa, F234A L235A, V domains shown)
VH: QVQLVQSGAEVKKPGSSVKVSCKASGGTFSSYAISWVRQAPGQGLEWMGGIIPIFGNANYAQKFQGRVTITADESTSTAYMELSSLRSEDTAVYYCARTIIYLDYVHILDYWGQGTLVTVSS
VL: not shown
notes: IgG4-PAA; whole chains
B2: IAPB09 (antibody, human IgG4 S228P, kappa, F234A L235A, V domains shown)
VH: QVQLVQSGAEVKKPGSSVKVSCKASGGTFSSYAISWVRQAPGQGLEWMGWISPIFGTANYAQKFQGRVTITADESTSTAYMELSSLRSEDTAVYYCARRYDNFARSGDLDYWGQGTLVTVSS
VL: not shown
notes: IgG4-PAA; whole chains; also called IAPB9
B3: IAPB47 (antibody, human IgG4 S228P, kappa, F234A L235A, V domains shown)
VH: EVQLVQSGAEVKKPGESLKISCKGSGYSFTSYWIGWVRQMPGKGLEWMGIIYPSDSYTRYSPSFQGQVTISADKSISTAYLQWSSLKASDTAMYYCARRNSAENYADLDYWGQGTLVTVSS
VL: EIVLTQSPGTLSLSPGERATLSCRASQSISNDLNWYQQKPGKAPKLLIYYASSLQSGVPSRFSGSGSGTDFTLTINSLQPEDFATYYCQQSFTAPLTFGQGTKVEIKR
notes: IgG4-PAA; whole chains
B4: IAPB57 (antibody, human IgG4 S228P, kappa, F234A L235A)
heavy: not shown
light: DIQLTQSPSFLSASVGDRVTITCRASQGISSYLAWYQQKPGKAPKLLIYAASTLQSGVPSRFSGSGSGTEFTLTISSLQPEDFATYYCQQVNSYPLTFGGGTKVEIKRTVAAPSVFIFPPSDEQLKSGTASVVCLLNNFYPREAKVQWKVDNALQSGNSQESVTEQDSKDSTYSLSSTLTLSKADYEKHKVYACEVTHQGLSSPVTKSFNRGEC
notes: IgG4-PAA; whole chains
B5: CD3B219 - CD3B219 Parental, IgG4 PAA (antibody)
heavy chain: EVQLVESGGGLVQPGGSLRLSCAASGFTFNTYAMNWVRQAPGKGLEWVARIRSKYNNYATYYAASVKGRFTISRDDSKNSLYLQMNSLKTEDTAVYYCARHGNFGNSYVSWFAYWGQGTLVTVSSASTKGPSVFPLAPCSRSTSESTAALGCLVKDYFPEPVTVSWNSGALTSGVHTFPAVLQSSGLYSLSSVVTVPSSSLGTKTYTCNVDHKPSNTKVDKRVESKYGPPCPPCPAPEAAGGPSVFLFPPKPKDTLMISRTPEVTCVVVDVSQEDPEVQFNWYVDGVEVHNAKTKPREEQFNSTYRVVSVLTVLHQDWLNGKEYKCKVSNKGLPSSIEKTISKAKGQPREPQVYTLPPSQEEMTKNQVSLTCLVKGFYPSDIAVEWESNGQPENNYKTTPPVLDSDGSFLLYSKLTVDKSRWQEGNVFSCSVMHEALHNHYTQKSLSLSLGK
light chain: QTVVTQEPSLTVSPGGTVTLTCRSSTGAVTTSNYANWVQQKPGQAPRGLIGGTNKRAPGTPARFSGSLLGGKAALTLSGVQPEDEAEYYCALWYSNLWVFGGGTKLTVLGQPKAAPSVTLFPPSSEELQANKATLVCLISDFYPGAVTVAWKADSSPVKAGVETTTPSKQSNNKYAASSYLSLTPEQWKSHRSYSCQVTHEGSTVEKTVAPTECS

What was measured:
[1] = target: T1, rat IL1RAP ECD displayed on HEK-293F …; assay: HEK-293F cells (MSD)
[2] = target: T2, mouse IL1RAP ECD displayed on HEK-293F …; assay: HEK-293F cells (MSD)
[3] = target: T3, cyno IL1RAP ECD displayed on HEK-293F …; assay: HEK-293F cells (MSD)
[4] = target: T4, recombinant human IL1RAP ECD; assay: SPR, summary
[5] = target: T4, recombinant human IL1RAP ECD; assay: SPR (ProteOn)
Description: The rates of IL1RAP ECD association and dissociation were measured for each variant. The biosensor surface was prepared by covalently coupling Goat anti-Human IgG (Fc) to the surface of a GLC chip (BioRad) using the manufacturer instructions for amine-coupling chemistry. […] The RU immobilized also included a goat anti-mouse Fc antibody that was added to capture other antibodies not included in the ones reported here. Since the mixture was 1:1 about 50% of these RU immobilized are expected to be goat anti-human Fc. The kinetic experiments were performed at 25° C. in running buffer (PBS pH 7.4, 0.005% P20, 3 mM EDTA). […] (1:3) serial dilutions of human IL1RAP ECD, starting at 400 nM were prepared in running buffer. […] The reference spots (Goat anti-Human IgG (Fc)-modified surface) containing no candidate captured were used as a reference surface. Capture of mAb was followed by a 3 minute injection (association phase) of antigen at 40 μL/min, followed by 10 minutes of buffer flow (dissociation phase). […] Data was processed on the instrument software. Double reference subtraction of the data was performed by subtracting the curves generated by buffer injection from the reference-subtracted curves for analyte injections. Kinetic analysis of the data was performed using 1:1 Langmuir binding model with group fit.

[6] = target: T5, recombinant cyno IL1RAP ECD; assay: recombinant protein
human FcγRI = target: T7, human FcγRI (human, UniProt P12314 16-292, limits assumed); assay: AlphaScreen competition, human FcγRI (n=1); displaced: biotinylated control mAb B21M hIgG1 AlaAla; pH 7.2
T7 construct: GST-tagged, on glutathione acceptor beads; also called FcγRT [sic]
Description: (§1) Measurements were made using an AlphaScreen™ assay (Amplified Luminescent Proximity Homogeneous Assay (ALPHA), PerkinElmer, Wellesley, Mass.), a bead-based luminescent proximity assay. Laser excitation of a donor bead excites oxygen, which if sufficiently close to the acceptor bead generates a cascade of chemiluminescent events, ultimately leading to fluorescence emission at 520-620 nm.

human FcRn = target: T8, human FcRn (human, UniProt P55899 24-297; P61769 21-119, limits assumed); assay: AlphaScreen competition, human FcRn (n=1); displaced: biotinylated control mAb B21M WT IgG1 (m27); pH 6.0
T8 construct: GST-tagged
Description: as §1

human FcγRIIb = target: T6, human FcγRIIb; assay: AlphaScreen competition, human FcγRIIb (n=1); displaced: biotinylated control mAb B21M hIgG1 WT; pH 7.2
Description: as §1

Binder	binding result [1]	binding result [2]	binding result [3]	Kd [4] [nM]	Kd [5] [nM]	koff [5] [s⁻¹]	kon [5] [M⁻¹ s⁻¹]	binding result [6]	IC50 (read off the curve) (human FcγRI) [nM]	IC50 (read off the curve) (human FcRn) [nM]	binding result (human FcγRIIb)
B1	binds	binds	binds	8.51	8.51	0.00719	844000	binds			
B2	binds	binds	binds	6.59	6.59	0.00379	574000	binds			
B3	binds	binds	binds	1.24	1.24	0.000811	653000	binds			
B4			binds	0.16				binds	~100	~200	binds
B5									~60	~200	binds
